Experimental data as given in patent US20250101107A1.

These binders were tested against human CD8 on human T cells (human) (UniProt P01732) (assay: cell-based or functional assay).
Chain of human CD8 on human T cells (human) (P01732 22-235, chain 1 of 2): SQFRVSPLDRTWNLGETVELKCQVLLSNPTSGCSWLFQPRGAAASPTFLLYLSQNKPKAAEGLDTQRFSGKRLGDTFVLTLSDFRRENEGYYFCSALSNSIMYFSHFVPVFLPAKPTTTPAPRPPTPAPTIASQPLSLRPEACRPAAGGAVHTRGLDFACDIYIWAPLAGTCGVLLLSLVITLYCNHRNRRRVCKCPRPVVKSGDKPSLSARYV
Chain of human CD8 on human T cells (human) (P10966 22-210, chain 2 of 2, further chain): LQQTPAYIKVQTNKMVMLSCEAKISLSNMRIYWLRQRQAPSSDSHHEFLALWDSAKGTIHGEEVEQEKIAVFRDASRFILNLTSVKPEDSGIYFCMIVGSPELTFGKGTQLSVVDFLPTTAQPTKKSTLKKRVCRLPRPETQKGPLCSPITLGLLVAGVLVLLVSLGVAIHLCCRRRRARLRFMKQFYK

Binder | EC50 for stimulation of pSTAT4 signaling, CD8+ T cells in pre-activated human PBMCs [nM]
03A01-Fab-IL12 (LC) (protein, from a related filing, not shown: a dimerising Fc or GST) VH: DVQFQESGPGLVKPSQSLSLTCTVTGYSITSDFAWNWIRQFPGNELEWMGYISYSGDTNYNPSLRSRISITRDTSKNQFFLQLDSVTTEDTATYYCTIRGYYTDSAFVFWGQGTLVTVSA VL: DIQMTQSSSYLSVSLGGRVTITCKASDHINNWLAWYQQKPGNAPRLLISGATSLETGVPSRFTGSGSGLDYTLSITSLQTEDVATYYCQQYWNSPFTFGSGTKLEIK | 0.0111
03A01-Fab-Fc-IL12 (LC) (protein, from a related filing, not shown: a dimerising Fc or GST) VH: DVQFQESGPGLVKPSQSLSLTCTVTGYSITSDFAWNWIRQFPGNELEWMGYISYSGDTNYNPSLRSRISITRDTSKNQFFLQLDSVTTEDTATYYCTIRGYYTDSAFVFWGQGTLVTVSA VL: DIQMTQSSSYLSVSLGGRVTITCKASDHINNWLAWYQQKPGNAPRLLISGATSLETGVPSRFTGSGSGLDYTLSITSLQTEDVATYYCQQYWNSPFTFGSGTKLEIK | 0.0134
02A01-Fab-IL12 (LC) (protein, from a related filing, not shown: a dimerising Fc or GST) VH: EVQLQQSGPELVKPGASLKISCKASGYTFTDFTMHWVKQSHGKSLEWIGLVNPNNGGNIYNQNFKGKATLTVDTSSSTAYMELRSLTSEDSSVYYCGRVPLYTSHGMDYWGQGTSVTVSS VL: DIVLTQSPAFLAVSLGQRATISCRASESVDSYDINSMHWYQQKPGQPPKLLIYRASHLQSGIPARFSGSGSRTDFTLTINFVEADDVATYYCQQSNEDPLTFGAGTKLELK | 0.00174
02A01-Fab-Fc-IL12 (LC) (protein, from a related filing, not shown: a dimerising Fc or GST) VH: EVQLQQSGPELVKPGASLKISCKASGYTFTDFTMHWVKQSHGKSLEWIGLVNPNNGGNIYNQNFKGKATLTVDTSSSTAYMELRSLTSEDSSVYYCGRVPLYTSHGMDYWGQGTSVTVSS VL: DIVLTQSPAFLAVSLGQRATISCRASESVDSYDINSMHWYQQKPGQPPKLLIYRASHLQSGIPARFSGSGSRTDFTLTINFVEADDVATYYCQQSNEDPLTFGAGTKLELK | 0.00211
